Drawing on PMC7277169, “C-Methylation of S-adenosyl-L-Methionine Occurs Prior to Cyclopropanation in the Biosynthesis of 1-Amino-2-Methylcyclopropanecarboxylic Acid (Norcoronamic Acid) in a Bacterium” (Biomolecules, 2020), this text covers Km and kcat for 1 substance.

As usually defined, the Km is the concentration of substrate that gives half-maximal velocity. The kcat is the number of substrate molecules converted per active site and unit of time at saturation.

The test system of the data set is T1, C[S+](CC[C@H](N)C(=O)O)C[C@H]1O[C@@H](n2cnc3c(N)ncnc32)[C@H](O)[C@@H]1O.
T1 construct: C-terminal 8xHis tag kept; expressed in Streptomyces lividans TK23; Ni-NTA purified; homodimer
Kind of data set: HPLC-HR-ESI-MS of APDS-derivatized ACC; Michaelis-Menten fit. As to conditions: 50 mM sodium phosphate pH 8.0, 30 °C, 60 min, PLP enzyme, unit typeset as 'mm' in text. Type of data set: biochemical, Streptomyces violaceusniger.

Regarding “rOrf30 (Orf30) (Streptomyces violaceusniger)”, the Km stood at 1090 ± 330 µM and the turnover number (kcat) is 0.0049 ± 0.00068 s⁻¹.
